Data reported in patent US20220259289A1 (Janssen / Centocor, published 2022).
Numbering of substitutions follows the chain as printed.

B1: ISOP193FR9P1E1 (designed binder, not shown: small tags and cut ends)
chain: LPAPKNLVVSRVTEDSARLSWTAPDAAFDSFIIRYLEDISYGEAIVLTVPGSERSYDLTGLKPGTEYHVGIEGVKGGNVSWPLSAIFTT
B2: ISOP193ER9P1H3 (designed binder, not shown: small tags and cut ends)
chain: B1 chain with I32E, R34Y, D38V, I39R, S40N, Y41R, E72A, N78F, V79H, W81F
B3: ISOP193GR9P1G9 (designed binder, not shown: small tags and cut ends)
chain: LPAPKNLVVSRVTEDSARLSWTAPDAAFDSFAIFYHEFANSGEAIDLPVPGSERSYDLTGLKPGTEYDVRIYGVKGGTASIPLDAEFTT
B4: ISOP193HR9P1A10 (designed binder, not shown: small tags and cut ends)
chain: LPAPKNLVVSRVTEDSARLSWTAPDAAFDSFDIYYLEPWGGGEAIVLTVPGSERSYDLTGLKPGTEYWVTIYGVKVCLGSNPLSAIFTT
B5: ISOP193HR9P1G4 (designed binder, not shown: small tags and cut ends)
chain: LPAPKNLVVSRVTEDSARLSWTAPDAAFDSFEIYYFELRLGGEAIVLTVPGSERSYDLTGLKPGTEYLVTIYGVKGGDYSPPLSAIFTT
B6: ISOP193HR9P1H7 (designed binder, not shown: small tags and cut ends)
chain: B4 chain with D32E, L36R, W39H, G40Y
B7: ISOP193HR9P1F8 (designed binder, not shown: small tags and cut ends)
chain: B5 chain with E32D, F36Y, G76V, G77C, D78Y, P81T
B8: ISOP193HR9P1G6 (designed binder, not shown: small tags and cut ends)
chain: B5 chain with E32D, F36Y, G76V, G77C, D78E, Y79Q, P81Y, F87S
B9: ISOP193HR9P1E8 (designed binder, not shown: small tags and cut ends)
chain: B5 chain with E32D, F36Y
B10: ISOP193HR9P1H10 (designed binder, not shown: small tags and cut ends)
chain: B4 chain with L36Y, P38L, W39R, G40L, W68L
B11: ISOP193HR9P1G5 (designed binder, not shown: small tags and cut ends)
chain: B5 chain with E32D, F36Y, G77C, D78A, Y79A, P81D
B12: ISOP193HR9P1F10 (designed binder, not shown: small tags and cut ends)
chain: B5 chain with E32D, F36Y, D78Y, P81G
B13: ISOP193HR9P1E3 (designed binder, not shown: small tags and cut ends)
chain: B5 chain with D78A, P81N
B14: ISOP193HR9P1G10 (designed binder, not shown: small tags and cut ends)
chain: B5 chain with F87S
B15: ISOP193GR9P1B3 (designed binder, not shown: small tags and cut ends)
chain: LPAPKNLVVSRVTEDSARLSWTAPDAAFDSFAIGYVEWTANGEAIVLIVPGSERSYDLTGLKPGTEYVVRIRGGVKGGDSSFPLRADFTT
B16: ISOP120GR5P1H6 (designed binder, not shown: small tags and cut ends)
chain: LPAPKNLVVSRVTEDSARLSWTNEQITKYGFDSFLIQYQESEKVGEAIVLTVPGSERSYDLTGLKPGTEYTVSIYGVGRHYTVYDSNPLSAIFTT
notes: FN3 domain (Centyrin); tested as E. coli lysate
B17: ISOP120AR5P1H3 (designed binder, not shown: small tags and cut ends)
chain: B16 chain with T22K, N23W, E24I, Q25S, I26H, T27E, K28P, Y29L, G30E
notes: as for B16
B18: ISOP120AR5P1G7 (designed binder, not shown: small tags and cut ends)
chain: B16 chain with T22S, N23Q, E24H, Q25Y, I26L, T27S, K28P, Y29I, G30P
notes: as for B16
B19: ISOP120AR5P1F11 (designed binder, not shown: small tags and cut ends)
chain: B16 chain with G67A
notes: as for B16
B20: ISOP193GR9P1E10 (designed binder, not shown: small tags and cut ends)
chain: LPAPKNLVVSRVTEDSARLSWTAPDAAFDSFAISYTESIRQGEAIWLWVPGSERSYDLTGLKPGTEYEVTIGGVKGGIRSYPLWAWFTT
B21: ISOP120AR5P1D2 (designed binder, not shown: small tags and cut ends)
chain: LPAPKNLVVSRVTEDSARLSWDFAYFKFDSFLIQYQESEKVGEAIVLTVPGSERSYDLTGLKPGTEYTVSIYGVGRFYTVYYSNPLSAIFTT
notes: as for B16
B22: ISOP120AR5P1C4 (designed binder, not shown: small tags and cut ends)
chain: B21 chain with D22A, A24Q, Y25W, F26H, K27I, R76Q, F77P, Y82D
notes: as for B16
B23: ISOP120AR5P1C5 (designed binder, not shown: small tags and cut ends)
chain: B21 chain with D22T, F23L, A24P, Y25N, F26I, K27H, F77H, Y82D
notes: as for B16
B24: ISOP120GR5P1A10 (designed binder, not shown: small tags and cut ends)
chain: LPAPKNLVVSRVTEDSARLSWTAPDAAFDSFEIPYIEVETIGEAIWLHVPGSERSYDLTGLKPGTEYSVGINGVKGGHTSNPLSARFTT
notes: as for B16
B25: ISOP193GR9P1H2 (designed binder, not shown: small tags and cut ends)
chain: B24 chain
B26: ISOP120GR5P1C10 (designed binder, not shown: small tags and cut ends)
chain: B24 chain with A26G
notes: as for B16
B27: ISOP193ER9P1F11 (designed binder, not shown: small tags and cut ends)
chain: LPAPKNLVVSRVTEDSARLSWTAPDAAFDSFAIQYQEYVAHGEAIVLTVPGSERSYDLTGLKPGTEYHVRISGVKGGGVSWPLSAISTT
B28: ISOP120GR5P1A11 (designed binder, not shown: small tags and cut ends)
chain: LPAPKNLVVSRVTEDSARLSWTAPDAAFDSFGIPYWEWTTEGEAIQLIVPGSERSYDLTGLKPATEYHVHIVGVKGGSFSEPLPADFTT
notes: as for B16
B29: ISOP193GR9P1F7 (designed binder, not shown: small tags and cut ends)
chain: LPAPKNLVVSRVTEDSARLSWTAPDAAFDSFDIPYVEYYPSGEAIVLNVPGSERSYDLTGLKPGTEYGVTIWGIKGGNESVPLTARFTT
B30: ISOP193FR9P1D1 (designed binder, not shown: small tags and cut ends)
chain: LPAPKNLVVSRVTEDSARLSWTAPDAAFDSFFIQYLEDVTNGEAIVLTVPGSERSYDLTGLKPGTEYRVPIAGVKGGRDSQPLSAIFTT
B31: ISOP120GR5P1F5 (designed binder, not shown: small tags and cut ends)
chain: LPAPKNLVVSRVTEDSARLSWTAPDAAFDSFEIDYWEVESEGEAIVLFVPGSERSYDLTGLKPGTEYHVHIVGVKGGTPSYPLWADFTT
notes: as for B16
B32: ISOP193GR9P1F6 (designed binder, not shown: small tags and cut ends)
chain: B31 chain
B33: ISOP120GR5P1E7 (designed binder, not shown: small tags and cut ends)
chain: B31 chain with V46I
notes: as for B16

Legend:
[1] = molecular target: unrelated Fc-fused recombinant protein; assay: ELISA, negative control Fc protein
[2] = molecular target: T1, recombinant biotinylated CD137 protein (Fc-fusion protein, R&D Systems 838-4B) (human, UniProt Q07011 24-186, biotinylated, sites not stated); assay: ELISA, lysate on biotinylated CD137-Fc
T1 construct: Bought Fc fusion; also called CD137-Fc
Protocol: (§1) Streptavidin-coated Maxisorp plates (Nunc catalog 436110) were blocked for 1 h in Starting Block T20 (Pierce) and then coated with biotinylated CD137 (using same antigen as in panning) or negative controls (an unrelated Fc-fused recombinant protein and human serum albumin) for 1 h. Plates were rinsed with TBST and diluted lysate was applied to plates for 1 h. Following additional rinses, wells were treated with HRP-conjugated anti-Centyrin antibody (PAB25) for 1 h and then assayed with POD (Roche catalog 11582950001).

human serum albumin [3] = molecular target: T2, human serum albumin (human, UniProt P02768 25-609); assay: ELISA, negative control HSA
T2 construct: Negative control of the ELISA; also called HSA
Protocol: as §1
T2 sequence (P02768 25-609 limits assumed): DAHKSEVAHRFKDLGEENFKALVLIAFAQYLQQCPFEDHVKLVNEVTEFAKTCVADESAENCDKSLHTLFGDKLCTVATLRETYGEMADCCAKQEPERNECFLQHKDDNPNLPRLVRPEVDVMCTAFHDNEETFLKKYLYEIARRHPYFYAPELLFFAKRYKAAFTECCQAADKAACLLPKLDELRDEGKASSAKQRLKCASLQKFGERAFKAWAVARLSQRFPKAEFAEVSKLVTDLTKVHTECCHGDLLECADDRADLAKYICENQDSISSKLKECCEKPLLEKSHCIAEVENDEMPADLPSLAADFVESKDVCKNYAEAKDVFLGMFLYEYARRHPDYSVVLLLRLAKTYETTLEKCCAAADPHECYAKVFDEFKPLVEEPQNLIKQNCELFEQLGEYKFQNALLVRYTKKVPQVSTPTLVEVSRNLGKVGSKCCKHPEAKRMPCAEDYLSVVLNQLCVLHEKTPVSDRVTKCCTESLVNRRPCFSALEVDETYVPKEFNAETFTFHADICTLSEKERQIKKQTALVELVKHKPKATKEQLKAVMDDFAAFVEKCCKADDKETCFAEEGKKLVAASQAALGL

human serum albumin [4] = molecular target: T3, human serum albumin (human, UniProt P02768 25-609); assay: ELISA, bacterial lysate on plate-bound antigen, luminescence
T3 construct: Negative control antigen of the screening ELISA; also called HSA
Protocol: as §1
T3 sequence (P02768 25-609 limits assumed): as above

[5] = molecular target: T4, recombinant biotinylated human CD137 protein (Fc-fusion protein, R&D Systems 838-4B) (human, UniProt Q07011 24-186, biotinylated (site not stated)); assay: as above
T4 construct: Bought Fc fusion; The ELISA used the same antigen as the panning; also called CD137-Fc; biotinylated CD137; not shown: Fc part of the bought fusion protein
Protocol: as §1

[6] = molecular target: unrelated Fc-fused recombinant protein (negative control); assay: as above

Binder | ELISA Fc Control (RLU) [1] [RLU] | ELISA CD137 (RLU) [2] [RLU] | ELISA HSA (RLU) (human serum albumin [3]) | ELISA HSA (RLU) (human serum albumin [4]) | ELISA CD137-Fc (RLU) [5] [RLU] | ELISA Fc Control (RLU) [6] [RLU]
B1 | 2000 | 1.16e+07 | 880 | – | – | –
B2 | 1520 | 1.05e+07 | 400 | – | – | –
B3 | 960 | 3.05e+06 | 480 | – | – | –
B4 | 5680 | 1.27e+07 | 1520 | – | – | –
B5 | 960 | 1.72e+07 | 560 | – | – | –
B6 | 49800 | 4.6e+06 | 13700 | – | – | –
B7 | 31300 | 1.61e+07 | 6080 | – | – | –
B8 | 8160 | 1.15e+07 | 1200 | – | – | –
B9 | 3120 | 1.63e+07 | 1520 | – | – | –
B10 | 43900 | 1.48e+07 | 10100 | – | – | –
B11 | 24200 | 1.51e+07 | 3360 | – | – | –
B12 | 1280 | 1.58e+07 | 960 | – | – | –
B13 | 1120 | 1.78e+07 | 640 | – | – | –
B14 | 1360 | 1.56e+07 | 800 | – | – | –
B15 | 880 | 3.46e+06 | 320 | – | – | –
B16 | – | – | – | 400 | 721000 | 400
B17 | – | – | – | 480 | 769000 | 400

Binder | ELISA Fc Control (RLU) [1] [RLU] | ELISA CD137 (RLU) [2] [RLU] | ELISA HSA (RLU) (human serum albumin [3]) | ELISA HSA (RLU) (human serum albumin [4]) | ELISA CD137-Fc (RLU) [5] [RLU] | ELISA Fc Control (RLU) [6] [RLU]
B18 | – | – | – | 480 | 568000 | 560
B19 | – | – | – | 320 | 715000 | 480
B20 | 1360 | 1.05e+07 | 480 | – | – | –
B21 | – | – | – | 640 | 908000 | 640
B22 | – | – | – | 240 | 708000 | 320
B23 | – | – | – | 160 | 425000 | 320
B24 | – | – | – | 400 | 627000 | 400
B25 | 1360 | 5.31e+06 | 640 | – | – | –
B26 | – | – | – | 480 | 502000 | 240
B27 | 2240 | 1.12e+07 | 400 | – | – | –
B28 | – | – | – | 320 | 1.05e+06 | 480
B29 | 880 | 3.48e+06 | 400 | – | – | –
B30 | 1680 | 8.13e+06 | 640 | – | – | –
B31 | – | – | – | 400 | 1.28e+06 | 400
B32 | 1360 | 9.85e+06 | 400 | – | – | –
B33 | – | – | – | 480 | 1.13e+06 | 400
